Results from PMC7372559 (ACS Chemical Biology, 2020).
Where a chain is given by its changes, count along the chain named. In names and notes the source's numbering stands.

B1: OphMA wild type, full-length, His8-tagged (enzyme, Omphalotus olearius, UniProt A0A2R2JFI5 1-417, looked up)
chain: METSTQTKAGSLTIVGTGIESIGQMTLQALSYIEAAAKVFYCVIDPATEAFILTKNKNCVDLYQYYDNGKSRLNTYTQMSELMVREVRKGLDVVGVFYGHPGVFVNPSHRALAIAKSEGYRARMLPGVSAEDCLFADLCIDPSNPGCLTYEASDFLIRDRPVSIHSHLVLFQVGCVGIADFNFTGFDNNKFGVLVDRLEQEYGAEHPVVHYIAAMMPHQDPVTDKYTVAQLREPEIAKRVGGVSTFYIPPKARKASNLDIIRRLELLPAGQVPDKKARIYPANQWEPDVPEVEPYRPSDQAAIAQLADHAPPEQYQPLATSKAMSDVMTKLALDPKALADYKADHRAFAQSVPDLTPQERAALELGDSWAIRCAMKNMPSSLLDAARESGEEASQNGFPWVIVVGVIGVIGSVMSTE
modifications: backbone N-methylation: most abundant species with complete methylation of the core peptide (9-fold) and an additional methylation at Val413
B2: OphMA V403T, full-length, His-tagged (enzyme)
chain: B1 chain with V403T
modifications: backbone N-methylation: 10-fold methylated species most abundant
B3: OphMA V404T, full-length, His-tagged (enzyme)
chain: B1 chain with V404T
modifications: backbone N-methylation: 10-fold methylated species most abundant
B4: OphMA I407R, full-length, His-tagged (enzyme)
chain: B1 chain with I407R
modifications: backbone N-methylation: dominant species carried three methylations
B5: OphMA I407E, full-length, His-tagged (enzyme)
chain: B1 chain with I407E
modifications: backbone N-methylation: peptides with 5 methylations
B6: OphMA V404F, full-length, His-tagged (enzyme)
chain: B1 chain with V404F
modifications: backbone N-methylation: mainly monomethylated
B7: OphMA V404R, full-length, His-tagged (enzyme)
chain: B1 chain with V404R
modifications: backbone N-methylation: dominant species unmethylated, next most abundant with two methylations
B8: OphMA V406F, full-length, His-tagged (enzyme)
chain: B1 chain with V406F
modifications: backbone N-methylation: a tetramethylated species and, to a lesser extent, a trimethylated species
B9: OphMA V406R, full-length, His-tagged (enzyme)
chain: B1 chain with V406R
modifications: backbone N-methylation: dominant species unmethylated, next most abundant with two methylations
B10: OphMA V404E, full-length, His-tagged (in vivo methylation series) (enzyme)
chain: B1 chain with V404E
modifications: backbone N-methylation: peptides with 2 methylations
B11: OphMA V406P, full-length, His-tagged (in vivo methylation series) (enzyme)
chain: B1 chain with V406P
modifications: backbone N-methylation: dominant species unmethylated, evidence for two and four methylations
B12: OphMA V403P, full-length, His-tagged (enzyme)
chain: B1 chain with V403P
modifications: backbone N-methylation: dominant species unmethylated, evidence for two methylations
B13: OphMA I407P, full-length, His-tagged (in vivo methylation series) (enzyme)
chain: B1 chain with I407P
modifications: backbone N-methylation: a variety of species (two to four methylations), evidence of up to six
B14: OphMA V403R, full-length, His-tagged (enzyme)
chain: B1 chain with V403R
modifications: backbone N-methylation: dominant species unmethylated, next most abundant with two methylations
B15: OphMA V406E, full-length, His-tagged (enzyme)
chain: B1 chain with V406E
modifications: backbone N-methylation: mixture of similarly abundant peptides containing 4, 5, or 6 methylations
B16: OphMA I407F, full-length, His-tagged (enzyme)
chain: B1 chain with I407F
modifications: backbone N-methylation: mainly a tetramethylated species with some pentamethylated species
B17: OphMA V403F, full-length, His-tagged (enzyme)
chain: B1 chain with V403F
modifications: backbone N-methylation: comparably abundant monomethylated, dimethylated, trimethylated and tetramethylated species
B18: OphMA I407T, full-length, His-tagged (enzyme)
chain: B1 chain with I407T
modifications: backbone N-methylation: 9-fold methylated species most abundant
B19: OphMA V403E, full-length, His-tagged (enzyme)
chain: B1 chain with V403E
modifications: backbone N-methylation: peptides with 1 methylation
B20: OphMA V406T, full-length, His-tagged (enzyme)
chain: B1 chain with V406T
modifications: backbone N-methylation: 3-fold methylated species most abundant
B21: OphMAΔC6-V404F (crystallised with SAH) (enzyme)
chain: METSTQTKAGSLTIVGTGIESIGQMTLQALSYIEAAAKVFYCVIDPATEAFILTKNKNCVDLYQYYDNGKSRLNTYTQMSELMVREVRKGLDVVGVFYGHPGVFVNPSHRALAIAKSEGYRARMLPGVSAEDCLFADLCIDPSNPGCLTYEASDFLIRDRPVSIHSHLVLFQVGCVGIADFNFTGFDNNKFGVLVDRLEQEYGAEHPVVHYIAAMMPHQDPVTDKYTVAQLREPEIAKRVGGVSTFYIPPKARKASNLDIIRRLELLPAGQVPDKKARIYPANQWEPDVPEVEPYRPSDQAAIAQLADHAPPEQYQPLATSKAMSDVMTKLALDPKALADYKADHRAFAQSVPDLTPQERAALELGDSWAIRCAMKNMPSSLLDAARESGEEASQNGFPWVIVFGVIGVIG
modifications: backbone N-methyl at Val401 and Val403 (in the crystal structure)

Molecular target: the molecule itself
Assay: SEC; Superdex-200 Increase column, 25 mM Tris-HCl (pH 8.0), 10% (v/v) glycerol, 100 mM NaCl; retention time of mutants compared with wild type
With B1 the “stoichiometry N” value was 2.
For B2, the “stoichiometry N” value was 2.
With B3 the “stoichiometry N” value was 2.
In the case of B4, the “stoichiometry N” value is reported as 2.
For B5, the “stoichiometry N” value was 2.
B6 was tested, and the “stoichiometry N” value was 2.
For B7, the “stoichiometry N” value was 2.
For B8, the “stoichiometry N” value was 2.
B9 was tested, and the “stoichiometry N” value was 2.
With B10 the “stoichiometry N” value was 2.
B11 was tested, and the “stoichiometry N” value was 2.
With B12 the “stoichiometry N” value was 2.
B13 was tested, and the “stoichiometry N” value was 2.
B14 was tested, and the “stoichiometry N” value was 2.
With B15 the “stoichiometry N” value was 2.
In the case of B16, the “stoichiometry N” value is reported as 2.
For B17, the “stoichiometry N” value was 2.
For B18, the “stoichiometry N” value was 2.
In the case of B19, the “stoichiometry N” value is reported as 2.
For B20, the “stoichiometry N” value was 2.

Molecular target: the molecule itself
Assay: crystal structure; hanging drop, 16 °C; protein (30-50 mg/mL) preincubated with 3 mM SAM; 0.3-0.4 M KSCN, 1.8-2.4 M sodium malonate, 0.1 M bicine pH 8.5-9.3; SAH bound
B21: binds.
